Two molecules from patent US20220348663A1 (Y BIOLOGICS, published 2022) can be followed below.

Assay [1] has as its target T1, human B7-H3 antigen (Octet) (human, UniProt Q5ZPR3 29-466, limits assumed).
T1 construct: Soluble antigen in the BLI assay
T1 sequence: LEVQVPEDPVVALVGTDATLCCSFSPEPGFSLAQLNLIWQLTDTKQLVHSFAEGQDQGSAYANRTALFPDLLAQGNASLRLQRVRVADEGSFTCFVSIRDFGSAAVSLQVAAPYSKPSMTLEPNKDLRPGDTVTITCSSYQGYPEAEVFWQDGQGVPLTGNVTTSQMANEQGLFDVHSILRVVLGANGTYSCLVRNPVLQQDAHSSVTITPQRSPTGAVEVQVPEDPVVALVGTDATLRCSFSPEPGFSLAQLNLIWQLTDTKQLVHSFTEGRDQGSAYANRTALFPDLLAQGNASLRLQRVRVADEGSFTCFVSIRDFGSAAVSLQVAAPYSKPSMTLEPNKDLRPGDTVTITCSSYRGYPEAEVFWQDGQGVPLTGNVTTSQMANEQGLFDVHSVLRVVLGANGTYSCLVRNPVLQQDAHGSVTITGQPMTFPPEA
In words: BLI (Octet QK), antibody captured on AHC biosensor, B7-H3 antigen 30-0.24 nM, 1:1 global fit.

Assay [2] concerns the target T2, rat B7-H3 (#80380-R08H, Sino) (rat, UniProt Q7TPB4 29-244).
T2 construct: Bought protein; also called rat B7-H3 antigen
T2 sequence (looked up): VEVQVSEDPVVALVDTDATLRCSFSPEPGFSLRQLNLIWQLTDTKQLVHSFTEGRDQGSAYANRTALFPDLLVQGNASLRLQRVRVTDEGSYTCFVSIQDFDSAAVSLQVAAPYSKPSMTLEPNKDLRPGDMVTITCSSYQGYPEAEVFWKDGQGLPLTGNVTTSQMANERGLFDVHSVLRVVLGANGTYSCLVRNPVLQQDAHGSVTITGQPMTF
In words: ELISA on coated Rat B7H3, OD450nm. (In general: ELISA stands for enzyme-linked immunosorbent assay.)

The target of assay [3] is T3, Mouse B7-H3 (#50973-M08H, Sino) (mouse, UniProt Q8VE98 29-244).
T3 construct: Bought protein; also called mouse B7-H3 antigen
T3 sequence (looked up): T2 sequence (looked up) with R33A, A62S, D131N, L156V, M214L
The assay can be described thus: ELISA on coated Mouse B7H3, OD450nm.

Positions count from the first letter of the chain named.

B1: CD276-040F10 (antibody, V domains shown)
VH: QVQLVESGAEVKKPGASVKLSCKASGYTFSSYWMHWVRQAPGQRLEWMGEINPGNGHTNYNEKFKSRVTITVDKSASTAYMELSSLRSEDTAVYYCVADPRRPKVPTALFVYWGQGTLVTVSS
VL: DIQMTQSPSSVSASVGDRVTISCRASQGIGTWLAWYQQKPGKAPRLLIYAASSLDSGVPSRFSASGSGTDFTLTISSLQPEDFATYYCQQAINFPITFGQGTRLEIK
notes: Converted from scFv to IgG form
For B1, binding in assay [1] was characterised by a dissociation constant (Kd) of 0.06 nM.

B2: CD276-039C05 (antibody, V domains shown)
VH: QVQLVESGAEVKKPGSSVKVSCKASGGTFSSYAISWVRQAPGQGLEWMGRIIPILGIANYAQKFQGRVTITADKSTSTAYMELSSLRSEDTAVYYCANGGDSSSWYTFDYWGQGTLITVSS
VL: DIQMTQSPSTLSASVGDKLTLTCRASQSISRWLAWYQQKPGKAPKLLIYKASYLQTGVPSRFSGSGTGTEFTLTISSLQPDDFATYYCQQYNTFPLTFAGGTKVEIK
notes: Converted from scFv to IgG form; Parent of the _LS_ light-chain variants
For B2, the binding result in assay [2] and in assay [3] was “binds” each time.

The Kd is the free concentration of one partner at which half of the binding sites on the other are occupied at equilibrium, for simple one-to-one binding. Higher therefore signals lower affinity.
